In the supplement of paper PMC10567573:
± gives the standard deviation.

Assay: protein stability index of a GFP-peptide fusion (GPS, HEK-293T) (PSI 1-6); higher = more stable
[1] = treatment: DMSO, c terminus: a fixed tail appended
[2] = treatment: MLN4924 1 uM, 8 h, c terminus: a fixed tail appended
[3] = treatment: DMSO, c terminus: native
[4] = treatment: MLN4924 1 uM, 8 h, c terminus: native
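Also: 24-mer peptide tiles fused after GFP, lentivirally expressed, FACS-sorted into six equal bins by GFP/DsRed ratio, decoded by Illumina sequencing, PSI is the read-weighted mean bin number.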

Sequence	protein stability index [1]	protein stability index [2]	protein stability index [3]	protein stability index [4]
VSSSVIEQLFFVRLVGKTPIETLI [NR2F2]	2.74 ± 0.58	3.05 ± 0.37	–	–
IIISEPMGYMLFNERMLESYLHAK [CARM1]	2.66 ± 0.41	2.51 ± 0.35	–	–
WTRITCAEEGWSPTPKCLRLCFFP [CFHR2]	2.82 ± 0.71	2.6 ± 0.46	–	–
ETSYLEMAAGSEPESVEASPVVVE [KMT2E]	5.38 ± 0.27	5.18 ± 0.34	–	–
QRAFSIQTPEQYYFCYKAILEFAE [PTPN9]	2.16 ± 0.29	2.16 ± 0.35	–	–
VKDTDDVPMILVGNKCDLEDERVV [RAP1B]	4.65 ± 0.45	5.02 ± 0.16	–	–
VSDSLTWREFHYIQSKLGIVSLLL [STEAP1]	2.45 ± 0.54	2.18 ± 0.25	–	–
QALGEHLKLRQQVIATATVYFKRF [CCNC]	2.54 ± 0.55	2.48 ± 0.42	–	–
YFYMSCLVKHKRIHSREKRGDSVK [ZNF649]	1.73 ± 0.16	2.38 ± 0.55	–	–
LAQEAEAWLNYPCFKNWDGSPVSS [OAS1]	3.04 ± 0.28	3.11 ± 0.35	–	–
ESVEGVVRILLEHYYKENDPSVRL [INTS4]	2.22 ± 0.46	2.46 ± 0.16	–	–
VQKEHEEYMKNLLKVGGILVMPLE [PCMTD2]	2.69 ± 0.21	2.7 ± 0.17	–	–
SIWAQNQVENWSAFAPDFKELDEN [RBBP5]	4.26 ± 0.26	4.23 ± 0.23	–	–
LNVHDLDSEQNGQVTCSILAYLPF [PCDHGA10]	2.24 ± 0.22	2.19 ± 0.41	–	–
PQVLADLGSFESPANSETSDLTLY [PCDHGA10]	4.19 ± 0.36	4.38 ± 0.34	–	–
GQTSGAREPPQAVSIKEAAGSSNL [VENTX]	5.26 ± 0.26	5.15 ± 0.25	–	–
SDFLTLHSIIISLVEAGAHTDMTN [FEM1B]	2.87 ± 0.43	2.93 ± 0.54	–	–
IDPRNGIPKLTPGDNPYMYPEQSK [SPATS1]	4.58 ± 0.13	4.5 ± 0.18	–	–
KKFYEAFSKNLKLGIHEDSTNRRR [HSP90AB1]	3.39 ± 0.33	3.59 ± 0.51	–	–
LPLLESCSVRPDASVSSHRFFGPN [TCF25]	3.17 ± 0.24	3.27 ± 0.26	–	–
LQMAVLVEKQADTLNVIELNVQKT [STX11]	2.59 ± 0.22	2.67 ± 0.26	–	–
FYFENALSKSNKPIHTIILNPHVH [CAMK2D]	2.01 ± 0.58	2.42 ± 0.044	–	–
MSRMQSKEYPVVPRSTVRQKVASN [TBX5]	4.25 ± 0.24	4.15 ± 0.087	–	–

Sequence	protein stability index [1]	protein stability index [2]	protein stability index [3]	protein stability index [4]
ESCEKNDPLSLLDDSKFPIEDTPL [PCDHGA10]	5.5 ± 0.34	5.463 ± 0.028	–	–
GNNPNGREAKMICFKSVAKTPYDT [ELOA2]	3.84 ± 0.43	3.93 ± 0.3	–	–
KIRKPRTIYCSLQLQALNRRFQQT [DLX1]	2.45 ± 0.78	1.95 ± 0.51	–	–
QEQVAGGEAQPGLPQEDPSTSQGC [FEM1A]	5.34 ± 0.12	5.42 ± 0.43	–	–
LTSRIKGDWIGLYRHFLKSPNFDG [DENND6A]	2.01 ± 0.31	2.37 ± 0.35	–	–
ASHNGISYKDLDVIFGVELPGNEE [TENT5D]	4.03 ± 0.16	4.01 ± 0.13	–	–
PSVYHAMPSPCSCMSFNPETRRLS [WDFY2]	2.57 ± 0.36	2.88 ± 0.41	–	–
QIVTKKIDLSHVTSKCGSLKNIRH [MAP2]	2.67 ± 0.039	2.71 ± 0.2	–	–
TSFNHMDSDKLSGLWSRISHLVLP [TOR1AIP2]	2.28 ± 0.2	2.33 ± 0.2	–	–
VLGPLVALIICYNWLHRRLAGQFL [MOG]	3.15 ± 0.19	2.92 ± 0.13	–	–
VGIFNTVINPMLNPIIYSFRNPDV [OR3A1]	2.34 ± 0.48	3.03 ± 0.83	–	–
QLEVTCTPYLKETLNSIWNVEDHI [POMT2]	2.51 ± 0.32	2.44 ± 0.34	–	–
WEVQVSPTCPVCKDRASPADLRTN [TRIM35]	3.2 ± 0.43	3.61 ± 0.27	–	–
YVLEFSDHPGIHEPLEPEVKYVGN [CPN1]	3.17 ± 0.27	3.3 ± 0.1	–	–
QDLCCRAVVSCTPVHLVDKLPLPI [RAB40B]	2.4 ± 0.27	2.09 ± 0.56	–	–
IENIQRVAAGVLCELAQDKEAAEA [CTNNB1]	5.08 ± 0.11	5.1 ± 0.48	–	–
MNYSEIESKVREATNDDPWGPSGQ [CLINT1]	4.84 ± 0.22	4.96 ± 0.14	–	–
LREKLRLREAEIARIRDEEAQRAS [LRRC45]	4.17 ± 0.56	4.65 ± 0.18	–	–
RNPVSLVVTRLVILGSGEEGPQVG [ADAMTS4]	2.83 ± 0.2	–	–	–
PSVPDNAELVLLTLGQAWQGYVSD [DFFB]	2.64 ± 0.52	2.84 ± 0.32	–	–
NTQTPVQPPPPPPPPPMQPTVPSA [CCDC6]	5.05 ± 0.48	5 ± 0.1	–	–
RFGDRMFYKDWWNSTSYSNYYRTW [SOAT1]	1.92 ± 0.23	2.04 ± 0.34	–	–
GGIETGSITEMFGEFRTGKTQICH [RAD51]	3.63 ± 0.34	3.71 ± 0.51	–	–

Sequence	protein stability index [1]	protein stability index [2]	protein stability index [3]	protein stability index [4]
QLRSDVCTPGGTTIYGLHALEQGG [PYCR3]	3.69 ± 0.23	3.61 ± 0.51	–	–
TPESTKPGPVCQPPVSQSRSLFSS [ANKRD40]	4.46 ± 0.19	4.21 ± 0.21	–	–
LSRKVAKLVHFLLLKYRAREPVTK [MAGEA6]	2.7 ± 0.37	2.43 ± 0.67	–	–
QELIQEAKPRATWTLKLDGNLQLD [RTP4]	3.886 ± 0.038	3.82 ± 0.32	–	–
VDALKSDKKVRTIIIRSEVPGIFC [AUH]	2.01 ± 0.38	2.35 ± 0.73	–	–
AFHVRRTNRVKECLAKGTFSDVTF [RHOBTB2]	2.57 ± 0.24	2.78 ± 0.4	–	–
LQELKKLKNSNYESIQQTARSIAE [PPTC7]	3.9 ± 0.51	3.76 ± 0.46	–	–
KGERRREPGGYDSSSTLMSSELET [DVL3]	5.19 ± 0.19	5.15 ± 0.13	–	–
SQFHSVRPQGPQLRQQQHKQNKQV [DNAJC4]	4.85 ± 0.12	4.87 ± 0.13	–	–
AGADLEHESEGGRTPLMKAARAGH [ANKRD17]	5.07 ± 0.29	4.95 ± 0.26	–	–
LKDVKSTLEKCEKVKTMEVTSVSI [TRIM39]	3.92 ± 0.16	3.89 ± 0.17	–	–
HIDAIILALPEDLQGILLKTGMT [DENND6A]	–	–	2.31 ± 0.59	2.59 ± 0.67
LSRAYDGTTYLPGIVGLNNIKAND [USP39]	3.45 ± 0.24	3.54 ± 0.32	–	–
HRLRVQQAALRAARLRHQELFRLR [NOP53]	2.88 ± 0.23	2.87 ± 0.4	–	–
SNYIFVAIFWIVFLLLIVFYTAIT [P2RY14]	2.26 ± 0.26	2.1 ± 0.41	–	–
MEIFMEEMREIRRKLRELQLRNCL [BEX3]	3.28 ± 0.41	2.52 ± 0.97	–	–
AQDLMDGLPPGDSNQLAWFDTDL [CTNNB1]	–	–	5.29 ± 0.094	5.09 ± 0.081
ASLKGYQWLKDKILSEEGRRQQAK [KCNAB2]	3.69 ± 0.18	3.67 ± 0.21	–	–
IIKMATARQETKEMARKVIEHCSN [ZER1]	2.94 ± 0.35	3.08 ± 0.13	–	–
EKRGFTSHFVFVIEVKTKGGSKYL [NCF4]	3.02 ± 1.1	3.64 ± 1.1	–	–
SFGLRFGKREAAPGNHGRSAGRG [KISS1]	–	–	3.23 ± 0.21	2.64 ± 0.45
KMKTRELHRESSNFDSIYICPSTF [HDAC6]	2.26 ± 0.36	2.71 ± 0.39	–	–
RYEPLPPSLPAAGEQDCCGERVVI [KCNA3]	4.04 ± 0.16	4.08 ± 0.34	–	–

Sequence	protein stability index [1]	protein stability index [2]	protein stability index [3]	protein stability index [4]
LDFSKKILHTAWHPSENIIAVAAT [PPP2R2B]	2.05 ± 0.2	2.3 ± 0.039	–	–
DRQYDSRGRFGELLLLLPTLQSIT [HNF4A]	2.35 ± 0.47	2.17 ± 0.21	–	–
LTILPTEIETWVREHCPENRERVV [ZNF449]	3.23 ± 0.2	3.42 ± 0.29	–	–
YNNQSLGHGSHSFIYYENMLLGVP [PKD2L1]	2.16 ± 0.21	2.23 ± 0.37	–	–
NWATTPSSQKKDTSSSTVVSTQRS [TIA1]	4.83 ± 0.19	4.92 ± 0.18	–	–
LCALPVHVAVEHQLPPASRCVLVF [SOAT2]	2.71 ± 0.6	2.71 ± 0.61	–	–
GYREDNIPQLEDVSNFLKERTGFS [TPH1]	3.75 ± 0.24	3.99 ± 0.42	–	–
LASHHNHFSQIVIFMLCTLVLAIP [OR10K2]	3.06 ± 0.22	3.13 ± 0.18	–	–
KGGAVAADGRIEPGDMLLQVNEIN [DVL3]	4.49 ± 0.19	4.59 ± 0.14	–	–
VSTGSTDNSPTSNSLEGGTDATAF [ADAMTSL2]	4.97 ± 0.28	5.31 ± 0.28	–	–
GGTPARSGTTLISVIVLDINDNAP [PCDHGC5]	2.66 ± 1.1	2.64 ± 1.6	–	–
NHANGLTLVSRAHQLVMEGYNWCH [PPP2CA]	2.6 ± 0.16	2.49 ± 0.29	–	–
AGDEAVFAQYDSFHVDSAAEYYRL [TNXB]	3.51 ± 0.38	3.68 ± 0.13	–	–
LDAVQVLSGVSQLLPKSRENYLNR [FCHO1]	3.13 ± 0.22	3.25 ± 0.18	–	–
MMDLRNTPAKSLDKFIEDYLLPDT [OAS1]	3.04 ± 0.16	3.15 ± 0.28	–	–
NGHTDVADVLLQAGADLEHESEGG [ANKRD17]	5.37 ± 0.17	5.28 ± 0.048	–	–
SELPPPMERTGGIGDSRPPSFHPH [DVL3]	4.55 ± 0.25	4.61 ± 0.09	–	–
DLAWMITFYVRFFLTYVPLLGLKA [FADS1]	3.03 ± 0.11	3.62 ± 0.23	–	–
QPKEKIQAIIESCSRQFPEFQERA [NOL4L]	3.7 ± 0.36	3.85 ± 0.1	–	–
EQGFSQSFTQEQVADIDGQYAMTR [CTNNB1]	4.86 ± 0.083	4.61 ± 0.16	–	–
